The source of these data is US20200347144A1 (SHANGHAI HYAMAB BIOTECH, published 2020).

Assay [1] deals with T1, hFc-tagged human 4-1BB extracellular domain protein (4-1BB-hFc) (human, UniProt Q07011 24-186, limits assumed).
T1 construct: also called immunogen A; 4-1BB^ECD-hFc; not shown: human IgG Fc fragment (hFc) of the pCpC vector
Put plainly: ELISA: human 4-1BB-hFc coated at 1.0 µg/mL, antibody titrated, HRP secondary antibody, OD450. The method, then:
(§1) The purified immunogen A (4-1BB-hFc), monkey 4-1BB-his, and mouse 4-1BB-his obtained in Example 1 [for the preparation method, see step 1 of Example 1, preparation of immunogen A], of which the extracellular domain of monkey-derived 4-1BB protein (purchased from ACRO biosystems), the extracellular domain of mouse 4-1BB protein (purchased from sino biological) or other immune detection point proteins respectively were diluted with PBS to a final concentration of 1.0 μg/mL, then added with […] per well to 96-well ELISA plate. It was sealed with plastic film and incubated at 4° C. overnight. The next day, the plate was washed twice with the plate-washing solution [PBS containing 0.01% (v/v) Tween20] and blocking solution [PBS containing 0.01% (v/v) Tween 20 and 1% (v/v) BSA] was added and blocked at room temperature for 2 hours. The blocking solution was discarded and 100 μl of the purified 4-1BB antibody obtained in Example 2 was added per well. After incubated at 37° C. for 2 hours, the plate was washed 3 times with a plate-washing solution [PBS containing 0.01% (v/v) Tween20]. A secondary antibody (purchased from Sigma) labeled with HRP (horseradish peroxidase) was added, and after incubated at 37° C. for 2 hours, the plate was washed 3 times with a plate-washing solution [PBS containing 0.01% (v/v) Tween20]. 100 μl of TMB substrate was added per well. After incubated for 30 minutes at room temperature, 100 μl of stop buffer (1.0N HCl) was added per well. The A450 nm values were read using an ELISA plate reader (SpectraMax 384plus, Molecular Device).

Assay [2] addresses T1, hFc-tagged human 4-1BB extracellular …. In words: ELISA, coated human 4-1BB-hFc; Ab 0.0006 ug/ml. The method, then: as §1
Assay [3] shares this target. Put plainly: ELISA, coated human 4-1BB-hFc; Ab 0.016 ug/ml. The protocol: as §1
(In general: An ELISA detects its analyte on a solid surface through an enzyme-linked reagent.)

Assay [4] addresses T2, monkey 4-1BB on CHOK1 cells (monkey).
T2 construct: whole, on cells; also called CHOK1-c4-1BB
In words: FACS, CHOK1-c4-1BB cells; Ab 0.0032 ug/ml. From the text:
(§2) The pIRES plasmid carrying the full-length gene of monkey-derived […] (the preparation method is the same as the preparation method of the pCpC vector carrying the human-derived IgG Fc fragment (hFc) in “Preparation of immunogen A” of the step (1) in Example 1, in which the database accession number of the amino acid sequence of the extracellular region of monkey 4-1BB protein (Phe19-Thr239) is G7PSE7) was transfected into CHOK1 cell line to obtain CHOK1 stable transfected cell line containing monkey 4-1BB (herein referred to as CHOK1-c4-1BB stable cell line). The CHOK1-h4-1BB stable cell line and the CHOK1-c4-1BB stable cell line were expanded and cultivated to 90% confluence in T-75 cell culture flasks. The medium was exhausted, and washed twice with HBSS buffer (Hanks Balanced Salt Solution, purchased from Invitrogen), and then the cells were treated and collected with enzyme-free cell dissociation solution (Versene solution, purchased from Life Technology). The cells were washed twice with HBSS buffer, and after cell counting, the cells were diluted with HBSS buffer to 2×10⁶ cells per ml, and 1% goat serum blocking solution was added, the percentage being the mass percentage. It was incubated on ice for 30 minutes, and then washed twice with HBSS buffer by centrifugation. The collected cells were suspended in FACS buffer (HBSS containing 1% BSA, the percentage was the mass percentage) to 2×10⁶ cells/mL, and 100 μl per well was added to a 96-well FACS reaction plate. The purified 4-1BB antibody test sample obtained in Example 2 was added, 100 microliters per well and incubated on ice for 2 hours. […] It was washed three times with FACS buffer by centrifugation, and 100 μl of fixative [4% (v/v) paraformaldehyde] per well was added to suspend cells, and washed twice with FACS buffer after 10 minutes by centrifugation. The cells were suspended with 100 microliters of FACS buffer, and the results were detected and analyzed with FACS (FACS Calibur, purchased from BD).
(In general: Flow cytometry measures light scatter and fluorescence of single cells or particles in a stream.)

The target in assay [5] is T2, monkey 4-1BB on CHOK1 cells. In words: FACS, CHOK1-c4-1BB cells; Ab 2 ug/ml.
From the text: as §2

Assay [6] concerns the target T3, human 4-1BB, full length, on transfected cells (human, UniProt Q07011 24-255).
T3 construct: whole, on cells; also called CHOK1-h4-1BB
Put plainly: FACS, CHOK1-h4-1BB cells; Ab 10 ug/ml.
From the text: as §2

In assay [7] the target is T1, hFc-tagged human 4-1BB extracellular …. Put plainly: ELISA, coated human 4-1BB-hFc; Ab 0.4 ug/ml. The method, then: as §1
The target of assay [8] is T2, monkey 4-1BB on CHOK1 cells. In words: FACS, CHOK1-c4-1BB cells; Ab 0.016 ug/ml.
From the text: as §2

In assay [9] the target is T3, human 4-1BB, full length, on …. In words: FACS, CHOK1-h4-1BB cells; Ab 2 ug/ml.
From the text: as §2

For assay [10] the target is unchanged. In words: FACS, CHOK1-h4-1BB cells; Ab 0.00064 ug/ml.
From the text: as §2

The target of assay [11] is T1, hFc-tagged human 4-1BB extracellular …. In words: ELISA, coated human 4-1BB-hFc; Ab 2 ug/ml. The method, then: as §1
The target in assay [12] is T2, monkey 4-1BB on CHOK1 cells. In words: FACS, CHOK1-c4-1BB cells; Ab 0.00064 ug/ml.
From the text: as §2

For assay [13] the target is unchanged. Put plainly: FACS, CHOK1-c4-1BB cells; Ab 10 ug/ml.
From the text: as §2

The target in assay [14] is T3, human 4-1BB, full length, on …. In words: FACS on CHOK1-h4-1BB cells, Alexa 488 secondary antibody, average fluorescence intensity.
From the text: as §2

T3 sequence (Q07011 24-255): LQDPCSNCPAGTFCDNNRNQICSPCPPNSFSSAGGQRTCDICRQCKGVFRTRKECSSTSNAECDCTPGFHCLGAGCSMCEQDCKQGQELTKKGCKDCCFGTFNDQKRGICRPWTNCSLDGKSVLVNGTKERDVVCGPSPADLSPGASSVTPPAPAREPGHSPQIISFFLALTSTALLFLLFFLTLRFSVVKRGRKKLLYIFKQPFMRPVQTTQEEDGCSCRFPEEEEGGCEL

B1: 289B6G6 (antibody, V domains shown)
VH: QVQLQESGPGLVRPSETLSLTCAVSGYSISSGYYWGWIRQPPGKGLEWIGSIFHSGNTYYNPSLKSRVIVSGDTSKNQFSLKLSSVTAADTAVYYCTRESSGFNVFDIWGQGTMVTVSS
VL: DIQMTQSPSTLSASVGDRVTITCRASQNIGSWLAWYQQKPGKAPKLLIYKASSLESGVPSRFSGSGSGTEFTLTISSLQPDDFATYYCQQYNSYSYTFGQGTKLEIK
Consider B1, for which, in assay [1], the “EC50 (read off the curve)” value is around 0.02 µg/mL. For the same molecule, the OD450 nm is 0.11 OD450 nm in [2], 1.47 OD450 nm in assay [3], 2.79 OD450 nm in assay [7] and 2.77 OD450 nm in assay [11]. The average fluorescence intensity in [4] came to 14.1 MFI; in assay [5] it was 597 MFI; in [6], 2280 MFI; in assay [8], 47.2 MFI; in assay [9], 1920 MFI; in assay [10], 8.9 MFI. The average fluorescence intensity in assay [12] turned out to be 5.3 MFI; in assay [13] it was 601 MFI.

B2: 52F4G2 (antibody, V domains shown)
VH: QVQLQESGPGLVKPSETLSLTCAVSGYSISSGYYWGWIRQPPGKGLEWIGSIFHSGSSYYNPSLKSRVTISVDTSKNQFSLKLRSVTAADTAVYYCARESSGWNCFDYWGQGTLVTVSS
VL: DIQMTQSPSTLSASVGDRVTITCRASQTISTWLAWYQQKPGKAPKLLIYKASNLESGVPSRFSGSGSGTEFTLTISSLQPDDFATYYCQQYNSYSITFGQGTRLEIK
For B2, the “EC50 (read off the curve)” value in assay [1] was around 0.007 µg/mL; in assay [14], around 0.05 µg/mL. Moreover, the OD450 nm worked out at 0.34 OD450 nm in [2], 2.51 OD450 nm in assay [3], 3.09 OD450 nm in assay [7] and 3.1 OD450 nm in assay [11]. Also, the average fluorescence intensity stood at 13.7 MFI in [4]; 679 MFI in [5]; 615 MFI in [6]; 41.2 MFI in assay [8]; 600 MFI in assay [9]; 11.7 MFI in assay [10]. In addition, the average fluorescence intensity is 4.5 MFI in assay [12] and 736 MFI in assay [13].

B3: 23G3B8 (antibody, V domains shown)
VH: QVQLQESGPGLVKPSETLSLTCAVSAYSISSGYYWGWIRQPPGKGLEWIGSIFHSGSNYYNPSLKSRVTISVDPSKNQFSLKLSSVTVADTAVYYCARESSGYNCFDYWGQGTLVTVSS
VL: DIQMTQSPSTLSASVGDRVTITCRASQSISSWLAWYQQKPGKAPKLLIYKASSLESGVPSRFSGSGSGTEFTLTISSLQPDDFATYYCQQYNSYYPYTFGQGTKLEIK
Regarding B3, the “EC50 (read off the curve)” value in assay [1] was around 0.02 µg/mL. The OD450 nm in assay [2] was found to be 0.1 OD450 nm; in assay [3] it was 1.1 OD450 nm; in [7], 2.77 OD450 nm; in [11], 2.78 OD450 nm. Moreover, the average fluorescence intensity was 10.8 MFI in [4]; 586 MFI in [5]; 34.2 MFI in assay [8]; 619 MFI in assay [9]; 11.2 MFI in assay [10]; 4.7 MFI in assay [12]. Also, in assay [13], the average fluorescence intensity was 595 MFI.

B4: 119B6G5 (antibody, V domains shown)
VH: EVQLLESGGGLVQPGGSLRLSCAASGFTFSNYAMSWVRQGPGKGLEWVSTIIGSGDSTYYTDSVKGRFTISRDNSKNTLFLQMNSLRAEDTAVYYCARDKSGWYYFDYWGQGTLVTVSS
VL: DIQMTQSPSTLSASVGDRVTITCRASQSISNWLAWYQQKPGKAPKLLIYKASSLESGVPSRFSGSGSGTEFTLTISSLQPDDFATYYCQQYNDYFPITFGQGTRLEIK
With B4, in assay [1], the “EC50 (read off the curve)” value was around 0.02 µg/mL. In addition, the OD450 nm in assay [2] amounted to 0.11 OD450 nm; in [3], 1.25 OD450 nm; in assay [7], 2.77 OD450 nm; in [11], 2.76 OD450 nm. The average fluorescence intensity in assay [4] amounted to 20.7 MFI; in assay [5], 1350 MFI; in assay [6], 1080 MFI; in assay [8] it was 77.9 MFI; in assay [9], 1080 MFI; in assay [10], 5.1 MFI. Further, the average fluorescence intensity in assay [12] came to 6.6 MFI; in assay [13] it was 1470 MFI.

B5: 57B3D10 (antibody, V domains shown)
VH: QVQLQESGPGLVKPSETLSLTCTVSGGSISSYYWSWIRQPPGKGLEWIGYIYYSGSTNYNPSLKSRVTISVDTSKSQFSLKLTSVTAADTAVYYCAKDSDYYGSGSYSYWYFDLWGRGTLVTVSS
VL: EIVMTQSPATLSVSPGERATLSCRASQSVSSNLAWYQQKPGQAPRLLIYGASTRAPGIPARFSGSGSGTEFTLTISSLQSEDFAVYYCQQYNNWPLTFGGGTKVEIK
notes: also called 4-1BB fully human antibody 57B3D10
Turning to B5, the “EC50 (read off the curve)” value was around 0.02 µg/mL in assay [1] and around 0.05 µg/mL in [14]. Besides, the average fluorescence intensity in assay [4] is 15 MFI; in assay [5], 567 MFI; in assay [6] it was 538 MFI; in [8], 63.5 MFI; in assay [9], 555 MFI; in assay [10] it was 12.5 MFI. The average fluorescence intensity in assay [12] was determined as 5.6 MFI; in assay [13], 581 MFI.

B6: 113F6C6 (antibody, V domains shown)
VH: QVQLVESGGGVVQPGRSLRLSCAASGLTFSSYGMHWVRQAPGKGLEWVAVIWYDGSNKYYADSVKGRFTISRDNSKNTLYLQMNSLRAEDTAVYYCAREEVLWFGELSYNYYYGMDVWGQGTTVTVSS
VL: DIQMTQSPSSLSASVGDRVTITCRASQGISNYLAWYQQKPGKVPKLLIYAASTLQSGVPSRFSGSGSGTDFTLTISSLQPEDVATYYCQKYNSVPLTFGGGTKVEIK
notes: also called 4-1BB fully human antibody 113F6C6; 113F6F6
Consider B6, for which the “EC50 (read off the curve)” value in [1] is around 0.02 µg/mL; in [14] it was around 0.1 µg/mL. Further, the average fluorescence intensity in [4] was found to be 15.1 MFI; in [5], 438 MFI; in [6], 405 MFI; in assay [8], 51.5 MFI; in [9] it was 477 MFI; in assay [10] it was 4.8 MFI. The results for the average fluorescence intensity in assay [12] and in assay [13] were 5.5 MFI and 426 MFI, respectively.

What is called EC50 (read off the curve) is the midpoint of the concentration-response curve.
